T1: human DLL3 (Delta-like ligand 3) (human, UniProt Q9NYJ7 27-618)
T1 construct: endogenous on SHP-77 cells; also called cell-surface DLL3
T1 sequence: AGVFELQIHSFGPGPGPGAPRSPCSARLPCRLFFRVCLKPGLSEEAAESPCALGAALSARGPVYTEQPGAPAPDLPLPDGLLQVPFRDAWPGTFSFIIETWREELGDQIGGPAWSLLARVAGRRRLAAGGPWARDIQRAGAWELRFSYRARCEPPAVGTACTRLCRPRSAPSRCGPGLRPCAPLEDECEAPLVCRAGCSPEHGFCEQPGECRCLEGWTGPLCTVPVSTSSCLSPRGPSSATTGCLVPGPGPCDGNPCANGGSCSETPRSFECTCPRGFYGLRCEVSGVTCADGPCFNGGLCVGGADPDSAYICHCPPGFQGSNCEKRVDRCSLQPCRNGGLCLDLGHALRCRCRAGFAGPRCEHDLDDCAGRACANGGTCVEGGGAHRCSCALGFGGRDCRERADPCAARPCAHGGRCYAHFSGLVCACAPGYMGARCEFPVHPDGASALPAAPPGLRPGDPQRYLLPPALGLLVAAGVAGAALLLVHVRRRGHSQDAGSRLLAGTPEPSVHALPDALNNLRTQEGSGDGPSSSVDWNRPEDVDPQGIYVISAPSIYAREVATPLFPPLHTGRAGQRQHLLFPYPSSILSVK


biological target: T1, human DLL3 (Delta-like ligand 3); assay: flow cytometry, sdAb-Fc titrated on SHP-77 cells (DLL3 positive), APC anti-human Fc secondary
Protocol: FIGS. 2A-L set forth a series of graphs depicting the ability of sdAb and humanized variants thereof targeting DLL3 to bind cell surface DLL3.
Specificity and relative affinity were assessed for purified sdAb-Fcs on DLL3-expressing cells. […] A titration series of the fusion protein was incubated with the DLL3-expressing cell lines (approximately 2.5×10⁴ to 5×10⁴ cells/well) for 30 minutes at 4 degrees Celsius in FACS Buffer (PBS 1% BSA, 0.1% NaN₃ pH 7.4) in 96-well plates. Following three wash steps in FACS buffer, an APC-conjugated anti-human Fcγ specific secondary antibody (Jackson ImmunoResearch) was added and incubated for 30 minutes at 4 degrees Celsius. Following three additional wash steps in FACS buffer bound antibody was detected via flow cytometry (IQue Intellicyte).

Binder | binding result | EC50 (read off the curve) [nM]
3C5 (Fc fusion, tested as VHH-human Fc; Fc not specified) VHH: QVQLVQSGGGLVQAGGSLRLSCAASGSIFSINAMGWYRQPPGKQRELVAGFTGDGSTKYADSVKGRFTISRDNAKNTVYLQMNSLKPEDTAVYYCAADVQLLNSDYEFYWGQGTQVTVKP | binds | 
L3G3 (Fc fusion, tested as VHH-human Fc; Fc not specified) VHH: QVQLVQSGGGLVQAGGSLRLSCAASGSIFSINAMGWYREAPGKQRELVAGFTGDGMTKYAESVKGRFTFSRDNAKNTVYLQMNSLKPEDTGVYYCAADVFTDRDHVDWYWGQGTQVTVKP | binds | 
hz3G3v3 (Fc fusion, tested as VHH-human Fc; Fc not specified) VHH: EVQLVESGGGEVQPGGSLRLSCAASGSIFSINAMGWYRQAPGKQRELVAGFTGDGMTKYAESVKGRFTFSRDNAKNTVYLQMSSLRAEDTAVYYCAADVFTDRDHVDWYWGQGTLVTVKP | binds | 
hz3G3v2 (Fc fusion, tested as VHH-human Fc; Fc not specified) VHH: EVQLVESGGGEVQPGGSLRLSCAASGSIFSINAMGWYREAPGKQRELVAGFTGDGMTKYAESVKGRFTISRDNAKNTVYLQMSSLRAEDTAVYYCAADVFTDRDHVDWYWGQGTLVTVKP | binds | 
hz3G3v4 (Fc fusion, tested as VHH-human Fc; Fc not specified) VHH: EVQLVESGGGEVQPGGSLRLSCAASGSIFSINAMGWYRQAPGKQRELVAGFTGDGMTKYAESVKGRFTISRDNAKNTVYLQMSSLRAEDTGVYYCAADVFTDRDHVDWYWGQGTLVTVKP | binds | 
hz10D9v7 (Fc fusion, tested as VHH-human Fc; Fc not specified) VHH: EVQLVESGGGEVQPGGSLRLSCAASGSIFSINAMGWYRQAPGKQRELVAGFTGDTNTIYAESVKGRFTISRDNAKNTVYLQMSSLRAEDTAVYYCAADVQLFSRDYEFYWGQGTLVTVKP | binds | 
hz10D9v5 (Fc fusion, tested as VHH-human Fc; Fc not specified) VHH: EVQLVESGGGEVQPGGSLRLSCAASGSILSINAMGWYRQAPGKQRELVAGFTGDTNTIYAESVKGRFTISRDNAKNTVYLQMSSLRAEDTAVYYCAADVQLFSRDYEFYWGQGTLVTVKP | binds | 
hz3G3v1 (Fc fusion, tested as VHH-human Fc; Fc not specified) VHH: EVQLVESGGGEVQPGGSLRLSCAASGSIFSINAMGWYRQAPGKQRELVAGFTGDGMTKYAESVKGRFTISRDNAKNTVYLQMSSLRAEDTAVYYCAADVFTDRDHVDWYWGQGTLVTVKP | binds | 
hz10D9v6 (Fc fusion, tested as VHH-human Fc; Fc not specified) VHH: EVQLVESGGGEVQPGGSLRLSCAASGSILSINAMGWYRQPPGKQRELVAGFTGDTNTIYAESVKGRFTISRDNAKNTVYLQMSSLRAEDTAVYYCAADVQLFSRDYEFYWGQGTLVTVKP | binds | 
hz3C5v7 (Fc fusion, tested as VHH-human Fc; Fc not specified) VHH: EVQLVESGGGEVQPGGSLRLSCAASGSIFSINAMGWYRQAPGKQRELVAGFTGDGSTKYAESVKGRFTISRDNAKNTVYLQMSSLRAEDTAVYYCAADVQLLQSDYEFYWGQGTLVTVKP | binds | 
hz10D9v1 (Fc fusion, tested as VHH-human Fc; Fc not specified) VHH: EVQLVESGGGEVQPGGSLRLSCAASGSILSINAMGWYRQAPGKQREMVAGFTGDGNTIYAESVKGRFTISRDNAKNTVYLQMSSLRAEDTAVYYCAADVQLFSRDYEFYWGQGTLVTVKP | binds | 
hz10D9v3 (Fc fusion, tested as VHH-human Fc; Fc not specified) VHH: EVQLVESGGGEVQPGGSLRLSCAASGSILSINAMGWYRQAPGKQREMVAGFTGEGNTIYAESVKGRFTISRDNAKNTVYLQMSSLRAEDTAVYYCAADVQLFSRDYEFYWGQGTLVTVKP | binds | 
hz3C5v3 (Fc fusion, tested as VHH-human Fc; Fc not specified) VHH: EVQLVESGGGEVQPGGSLRLSCAASGSIFSINAMGWYRQAPGKQRELVAGFTGDTSTKYAESVKGRFTISRDNAKNTVYLQMSSLRAEDTAVYYCAADVQLLNSDYEFYWGQGTLVTVKP | binds | 
hz5A7v1 (Fc fusion, tested as VHH-human Fc; Fc not specified) VHH: EVQLVESGGGEVQPGGSLRLSCAASGSDFSINAIGWYRQAPGKQRDMVAGFTGDGVTTYAESVKGRFTISRDNAKNTVYLQMSSLRAEDTAVYYCAADVKIGGDYEWFWGQGTLVTVKP | binds | 

The next lines start with the values.

binding result | EC50 (read off the curve) [nM] | Binder
 | ~0.7 | hz3C5v2 (Fc fusion, tested as VHH-human Fc; Fc not specified) VHH: EVQLVESGGGEVQPGGSLRLSCAASGSIFSINAMGWYRQPPGKQRELVAGFTGDGSTKYAESVKGRFTISRDNAKNTVYLQMSSLRAEDTAVYYCAADVQLLNSDYEFYWGQGTLVTVKP
binds |  | hz3C5v6 (Fc fusion, tested as VHH-human Fc; Fc not specified) VHH: EVQLVESGGGEVQPGGSLRLSCAASGSIFSINAMGWYRQAPGKQRELVAGFTGDGSTKYAESVKGRFTISRDNAKNTVYLQMSSLRAEDTAVYYCAADVQLLTSDYEFYWGQGTLVTVKP
binds |  | hz3C5v4 (Fc fusion, tested as VHH-human Fc; Fc not specified) VHH: EVQLVESGGGEVQPGGSLRLSCAASGSIFSINAMGWYRQAPGKQRELVAGFTGEGSTKYAESVKGRFTISRDNAKNTVYLQMSSLRAEDTAVYYCAADVQLLNSDYEFYWGQGTLVTVKP
binds |  | hz3C5v8 (Fc fusion, tested as VHH-human Fc; Fc not specified) VHH: EVQLVESGGGEVQPGGSLRLSCAASGSIFSINAMGWYRQAPGKQRELVAGFTGDGSTKYAESVKGRFTISRDNAKNTVYLQMSSLRAEDTAVYYCAADVQLLNTDYEFYWGQGTLVTVKP
binds |  | hz3C5v5 (Fc fusion, tested as VHH-human Fc; Fc not specified) VHH: EVQLVESGGGEVQPGGSLRLSCAASGSIFSINAMGWYRQAPGKQRELVAGFTGDGSTKYAESVKGRFTISRDNAKNTVYLQMSSLRAEDTAVYYCAADVQLLSSDYEFYWGQGTLVTVKP
binds |  | hz3C5v1 (Fc fusion, tested as VHH-human Fc; Fc not specified) VHH: EVQLVESGGGEVQPGGSLRLSCAASGSIFSINAMGWYRQAPGKQRELVAGFTGDGSTKYAESVKGRFTISRDNAKNTVYLQMSSLRAEDTAVYYCAADVQLLNSDYEFYWGQGTLVTVKP
binds |  | hz10D9v4 (Fc fusion, tested as VHH-human Fc; Fc not specified) VHH: EVQLVESGGGEVQPGGSLRLSCAASGSILSINAMGWYRQAPGKQREMVAGFTGDTNTIYAESVKGRFTISRDNAKNTVYLQMSSLRAEDTAVYYCAADVQLFSRDYEFYWGQGTLVTVKP
binds |  | hz10D9v2 (Fc fusion, tested as VHH-human Fc; Fc not specified) VHH: EVQLVESGGGEVQPGGSLRLSCAASGSILSINAMGWYRQAPGKQRELVAGFTGDGNTIYAESVKGRFTISRDNAKNTVYLQMSSLRAEDTAVYYCAADVQLFSRDYEFYWGQGTLVTVKP
binds |  | L5A7 (Fc fusion, tested as VHH-human Fc; Fc not specified) VHH: EVQLVQSGGGLVQPGGSLRLSCAASGSDFSINAIGWYRQAPGKQRDMVAGFTGDGVTTYADSVKGRFTISRDNAKNTVYLQMNSLKPEDTAVYYCAADVKIGGDYEWFWGQGTQVTVKP
binds |  | hz5A7v4 (Fc fusion, tested as VHH-human Fc; Fc not specified) VHH: EVQLVESGGGEVQPGGSLRLSCAASGSDFSINAIGWYRQAPGKQRDLVAGFTGDGVTTYAESVKGRFTISRDNAKNTVYLQMSSLRAEDTAVYYCAADVKIGGDYEWFWGQGTLVTVKP
binds |  | hz5A7v5 (Fc fusion, tested as VHH-human Fc; Fc not specified) VHH: EVQLVESGGGEVQPGGSLRLSCAASGSDFSINAIGWYRQAPGKQRDWVAGFTGDGVTTYAESVKGRFTISRDNAKNTVYLQMSSLRAEDTAVYYCAADVKIGGDYEWFWGQGTLVTVKP
binds |  | hz5A7v6 (Fc fusion, tested as VHH-human Fc; Fc not specified) VHH: EVQLVESGGGEVQPGGSLRLSCAASGSDFSINAIGWYRQPPGKQRDMVAGFTGDGVTTYAESVKGRFTISRDNAKNTVYLQMSSLRAEDTAVYYCAADVKIGGDYEWFWGQGTLVTVKP
binds |  | hz5A7v2 (Fc fusion, tested as VHH-human Fc; Fc not specified) VHH: EVQLVESGGGEVQPGGSLRLSCAASGSDFSINAIGWYRQAPGKQRDMVAGFTGDTVTTYAESVKGRFTISRDNAKNTVYLQMSSLRAEDTAVYYCAADVKIGGDYEWFWGQGTLVTVKP
binds |  | hz5A7v3 (Fc fusion, tested as VHH-human Fc; Fc not specified) VHH: EVQLVESGGGEVQPGGSLRLSCAASGSDFSINAIGWYRQAPGKQRDMVAGFTGEGVTTYAESVKGRFTISRDNAKNTVYLQMSSLRAEDTAVYYCAADVKIGGDYEWFWGQGTLVTVKP
 | ~2 | hz6C5v1 (Fc fusion, tested as VHH-human Fc; Fc not specified) VHH: EVQLVESGGGEVQPGGSLRLSCAASEITFSDKTVGWYRQAPGKQRVLVAVISNVDSTNYAESVKGRFTISRDNAKNTLYLQMSSLRAEDTAVYYCHARDFENEYWGQGTLVTVKP

— patent US20210380679A1 (INHIBRX BIOSCIENCES, published 2021)
